US20260184765A1 (INVENRA, published 2026)

Target: CTLA4 (UniProt P16410 36-161, limits assumed)
Assay: Octet BLI, antigen immobilized, B-Body as analyte
Description: In each instance, the antigen is immobilized and the B-Body is the analyte.

CTLA4, sequence (P16410 36-161 limits assumed): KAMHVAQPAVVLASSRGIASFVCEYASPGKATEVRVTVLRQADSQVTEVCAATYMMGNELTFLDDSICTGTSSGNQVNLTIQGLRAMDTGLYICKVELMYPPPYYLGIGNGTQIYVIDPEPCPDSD

binding result: no binding
B1: bivalent bispecific B-Body "BC1" (bispecific antibody)
chain 1: not shown
chain 2: EVQLVESGGGLVQPGGSLRLSCAASGFTFSDYDIHWVRQAPGKGLEWVGDITPYDGTTNYADSVKGRFTISADTSKNTAYLQMNSLRAEDTAVYYCARLVGEIATGFDYWGQGTLVTVSSASPREPQVYTDPPSRDELTKNQVSLTCLVKGFYPSDIAVEWESNGQPENNYKTTPPVLDSDGSFFLYSKLTVDKSRWQQGNVFSCSVMHEALHNHYTQKSLSLSGEC
chain 3: not shown
chain 4: QVQLVESGGGVVQPGRSLRLDCKASGITFSNSGMHWVRQAPGKGLEWVAVIWYDGSKRYYADSVKGRFTISRDNSKNTLFLQMNSLRAEDTAVYYCATNDDYWGQGTLVTVSSASTKGPSVFPLAPSSKSTSGGTAALGCLVKDYFPEPVTVSWNSGALTSGVHTFPAVLQSSGLYSLSSVVTVPSSSLGTQTYICNVNHKPSNTKVDKKVEPPKSC
notes: Specific for PD1 (nivolumab variable regions) and Antigen A; four different chains, one of each; also called bivalent 1×1 bispecific construct BC1
